Consider four molecules from article PMC8809517, “Cofactor-independent RNA editing by a synthetic S-type PPR protein”.

Residue numbers refer to the chain shown, from its start.

Holding throughout (experiment): high-throughput RNA pulldown from lysate on Ni-NTA beads; HRP: 50 mM Tris pH 8, 150 mM NaCl, 1 mM beta-mercaptoethanol, 50 ug/ml BSA, 3 ug/ml yeast RNA, 0.5% heparin; ITC and FP: Tris pH 8, 200 mM KCl, 5% glycerol; MST: 50 mM Tris pH 8, 200 mM NaCl, 1 mM DTT, BSA, heparin, 0.05% Tween 20
Common to all, as to conditions: tags: N-terminal His-eGFP

Data set [1] concerns the target T1, GFP-9S library array, motif 4 ND N98F;D124Q (synthetic construct, N98F;D124Q).
T1 chain: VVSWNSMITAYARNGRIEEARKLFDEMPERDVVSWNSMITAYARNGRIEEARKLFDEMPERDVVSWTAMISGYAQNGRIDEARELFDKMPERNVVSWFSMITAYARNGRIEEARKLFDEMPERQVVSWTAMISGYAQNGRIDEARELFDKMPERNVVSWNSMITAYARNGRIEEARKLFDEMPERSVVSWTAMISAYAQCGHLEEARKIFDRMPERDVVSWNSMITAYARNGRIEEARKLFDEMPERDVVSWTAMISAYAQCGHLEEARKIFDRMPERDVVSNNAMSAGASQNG

Data set [2] addresses T2, GFP-9S library array, motif 4 ND N98M (synthetic construct, N98M).
T2 chain: T1 chain with F98M, Q124D

In data set [3] the target is T3, GFP-9S library array, motif 4 ND N98A;D124N (synthetic construct, N98A;D124N).
T3 chain: T1 chain with F98A, Q124N

For data set [4], the target named is T4, GFP-9S library array, motif 4 ND N98T;D124W (synthetic construct, N98T;D124W).
T4 chain: T1 chain with F98T, Q124W

Data set [5] deals with T5, GFP-9S library array, motif 4 ND N98S (synthetic construct, N98S).
T5 chain: T1 chain with F98S, Q124D

Take AUUAUACGUGA (ssRNA) [IR-rpoA-U]: the Kd (commonly the free concentration of one partner at which half of the binding sites on the other are occupied at equilibrium, for simple one-to-one binding) stood at 466 nM in data set [1] (label: 5' IRDye 800CW); 129 nM in data set [2] (label: 5' IRDye 800CW); 44 nM in data set [3] (label: 5' IRDye 800CW); 150 nM in data set [4] (label: 5' IRDye 800CW); 262 nM in data set [5] (label: 5' IRDye 800CW).
Turning to AUUAGACGUGA (ssRNA) [Cy5-rpoA-G], the Kd stood at 143 nM in data set [1] (label: 5' Cy5); 43.1 nM in data set [2] (label: 5' Cy5); 123 nM in data set [3] (label: 5' Cy5); 71.6 nM in data set [4] (label: 5' Cy5); 17.2 nM in data set [5] (label: 5' Cy5).
For AUUAAACGUGA (ssRNA) [IR-rpoA-A], the Kd came to 419 nM in data set [1] (label: 5' IRDye 800CW); 296 nM in data set [2] (label: 5' IRDye 800CW); 137 nM in data set [3] (label: 5' IRDye 800CW); 125 nM in data set [4] (label: 5' IRDye 800CW); 574 nM in data set [5] (label: 5' IRDye 800CW).
With AUUACACGUGA (ssRNA) [Cy5-rpoA], the dissociation constant Kd in data set [1] (label: 5' Cy5) amounted to 158 nM; in data set [2] (label: 5' Cy5), 143 nM; in data set [3] (label: 5' Cy5), 66 nM; in data set [4] (label: 5' Cy5), 81.5 nM; in data set [5] (label: 5' Cy5), 413 nM.
